# Data reported in patent US20260055182A1 (CIS BIOPHARMA, published 2026).
# Legend:
# [1] = target: T1, L1-CAM recombinant protein (His Tag), human (human, UniProt P32004 20-1120); experiment: SPR (Biacore 8K); L1-CAM immobilised on CM5 chip, antibody as analyte
# T1 construct: Bought protein; also called CD171; human L1-CAM; not shown: His tag
# [2] = target: T1, L1-CAM recombinant protein (His Tag), …; experiment: GCI (Creoptix WAVEdelta); antibody captured on protein A/G, L1-CAM as analyte, 1:1 model
# [3] = target: T1, L1-CAM recombinant protein (His Tag), …; experiment: SPR (Biacore 8K) as in Example 6, new batch of L1-CAM on the chip
# Protocol: (§1) In the SPR experiment, antigen is immobilized on sensor chip and solutions containing antibody at various concentrations are flown over the antigen. real time measurement of kinetics parameters is performed, including their on/off rates (ka and kd). Based thereon, binding affinity constant KD is determined.
# [4] = target: T1, L1-CAM recombinant protein (His Tag), …; experiment: ELISA, human L1-CAM coated at 2 µg/ml
# [5] = target: T1, L1-CAM recombinant protein (His Tag), …; experiment: ELISA, human L1-CAM coated at 2 µg/ml; first of two values in the cell; first of two values in the cell
# [6] = target: T1, L1-CAM recombinant protein (His Tag), …; experiment: SPR (Biacore 8K); L1-CAM immobilised on CM5 chip, antibody as analyte; remark: listed apart in the source
# Protocol: as §1
# [7] = target: T1, L1-CAM recombinant protein (His Tag), …; experiment: ELISA, human L1-CAM coated at 2 µg/ml; second of two values in the cell; second of two values in the cell
# T1 sequence (P32004 20-1120 limits assumed): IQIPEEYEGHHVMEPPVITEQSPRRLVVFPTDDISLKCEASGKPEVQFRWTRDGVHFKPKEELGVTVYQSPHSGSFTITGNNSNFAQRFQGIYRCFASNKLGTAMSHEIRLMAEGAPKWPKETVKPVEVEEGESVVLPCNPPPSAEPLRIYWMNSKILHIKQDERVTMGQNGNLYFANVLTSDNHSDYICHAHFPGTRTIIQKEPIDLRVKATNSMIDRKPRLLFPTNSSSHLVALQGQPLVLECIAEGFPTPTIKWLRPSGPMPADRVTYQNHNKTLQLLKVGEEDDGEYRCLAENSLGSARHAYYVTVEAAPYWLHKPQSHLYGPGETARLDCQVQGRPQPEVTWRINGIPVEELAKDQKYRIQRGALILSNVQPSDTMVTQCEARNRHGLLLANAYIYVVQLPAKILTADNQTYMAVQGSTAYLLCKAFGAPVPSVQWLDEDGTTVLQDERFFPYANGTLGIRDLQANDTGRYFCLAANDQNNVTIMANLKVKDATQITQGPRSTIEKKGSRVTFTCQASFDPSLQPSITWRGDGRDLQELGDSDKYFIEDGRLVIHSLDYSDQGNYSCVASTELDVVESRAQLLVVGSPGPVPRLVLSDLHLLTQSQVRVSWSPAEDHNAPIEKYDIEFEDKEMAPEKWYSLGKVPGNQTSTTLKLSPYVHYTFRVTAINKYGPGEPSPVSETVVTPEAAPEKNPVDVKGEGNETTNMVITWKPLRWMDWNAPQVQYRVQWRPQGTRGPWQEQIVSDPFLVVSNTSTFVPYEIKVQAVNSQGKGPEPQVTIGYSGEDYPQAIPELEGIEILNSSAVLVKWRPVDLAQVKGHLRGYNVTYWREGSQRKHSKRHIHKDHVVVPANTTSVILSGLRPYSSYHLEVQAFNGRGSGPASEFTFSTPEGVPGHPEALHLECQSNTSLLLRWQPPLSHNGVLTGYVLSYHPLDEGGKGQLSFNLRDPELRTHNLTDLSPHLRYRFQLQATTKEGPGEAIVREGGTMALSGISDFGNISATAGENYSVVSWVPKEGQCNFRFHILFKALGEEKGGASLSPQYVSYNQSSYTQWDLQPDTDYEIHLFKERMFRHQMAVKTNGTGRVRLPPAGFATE
Binder,Kd [1] [nM],koff [1] [s⁻¹],kon [1] [M⁻¹ s⁻¹],kon [3] [M⁻¹ s⁻¹],EC50 [4] [mg/L],Kd [6] [nM],koff [6] [s⁻¹],kon [6] [M⁻¹ s⁻¹],further results
"CE7-variant7-AG (antibody, human IgG1, kappa, L234A L235A, N297A, CE7-1-2-VHB (L234A L235A P331S N297A) + CE7-1-NL1-VLA, aglycosylated human IgG1 kappa; also called CE7-varant7-AG; huCE7 variant 7AG) heavy: QVQLVQSGAEVKKPGASVKVSCKASGYTFTGYWMHWVRQAPGQGLEWIGEINPSNGRTNYNERFQGRVTLTVDKSISTAYMELSRLRSDDTAVYYCARDYYGTSYNFDYWGQGTLVTVSSASTKGPSVFPLAPSSKSTSGGTAALGCLVKDYFPEPVTVSWNSGALTSGVHTFPAVLQSSGLYSLSSVVTVPSSSLGTQTYICNVNHKPSNTKVDKKVEPKSCDKTHTCPPCPAPEAAGGPSVFLFPPKPKDTLMISRTPEVTCVVVDVSHEDPEVKFNWYVDGVEVHNAKTKPREEQYASTYRVVSVLTVLHQDWLNGKEYKCKVSNKALPASIEKTISKAKGQPREPQVYTLPPSREEMTKNQVSLTCLVKGFYPSDIAVEWESNGQPENNYKTTPPVLDSDGSFFLYSKLTVDKSRWQQGNVFSCSVMHEALHNHYTQKSLSLSPGK light: DIQMTQSPSSLSASVGDRVTITCKANEDINNRLAWYQQKPGKAPKLLISGATNLVTGVPSRFSGSGSGKDYTLTISSLQPEDFATYYCQQYWSTPFTFGQGTKLEIKRTVAAPSVFIFPPSDEQLKSGTASVVCLLNNFYPREAKVQWKVDNALQSGNSQESVTEQDSKDSTYSLSSTLTLSKADYEKHKVYACEVTHQGLSSPVTKSFNRGEC",< 0.00971,< 1e-05,1.03e+06,1.48e+06,0.0258,–,–,–,Kd [2]: ~4 nM; Kd [3]: 0.0238 nM; koff [3]: 3.53e-05 s⁻¹
"CE7-variant7 (antibody, also called CE7-12-VHB-1NL1-VLA; humanized variant 7) heavy: QVQLVQSGAEVKKPGASVKVSCKASGYTFTGYWMHWVRQAPGQGLEWIGEINPSNGRTNYNERFQGRVTLTVDKSISTAYMELSRLRSDDTAVYYCARDYYGTSYNFDYWGQGTLVTVSSASTKGPSVFPLAPSSKSTSGGTAALGCLVKDYFPEPVTVSWNSGALTSGVHTFPAVLQSSGLYSLSSVVTVPSSSLGTQTYICNVNHKPSNTKVDKKVEPKSCDKTHTCPPCPAPEAAGGPSVFLFPPKPKDTLMISRTPEVTCVVVDVSHEDPEVKFNWYVDGVEVHNAKTKPREEQYNSTYRVVSVLTVLHQDWLNGKEYKCKVSNKALPASIEKTISKAKGQPREPQVYTLPPSREEMTKNQVSLTCLVKGFYPSDIAVEWESNGQPENNYKTTPPVLDSDGSFFLYSKLTVDKSRWQQGNVFSCSVMHEALHNHYTQKSLSLSPGK light: DIQMTQSPSSLSASVGDRVTITCKANEDINNRLAWYQQKPGKAPKLLISGATNLVTGVPSRFSGSGSGKDYTLTISSLQPEDFATYYCQQYWSTPFTFGQGTKLEIKRTVAAPSVFIFPPSDEQLKSGTASVVCLLNNFYPREAKVQWKVDNALQSGNSQESVTEQDSKDSTYSLSSTLTLSKADYEKHKVYACEVTHQGLSSPVTKSFNRGEC",–,–,–,–,–,0.000896,5.51e-07,615000,EC50 [5]: 0.00958 mg/L; EC50 [7]: 0.0327 mg/L
"CE7-variant4-AG (antibody, CE7-1-2-VHA (L234A L235A P331S N297A) + CE7-1-33-VLB, aglycosylated human IgG1 kappa; also called CE7-varant4-AG) heavy: QVQLVQSGAEVKKPGASVKVSCKASGYTFTGYWMHWVRQAPGQGLEWIGEINPSNGRTNYNERFKSRVTLTVDKSISTAYMELSRLRSDDTAVYFCARDYYGTSYNFDYWGQGTLVTVSSASTKGPSVFPLAPSSKSTSGGTAALGCLVKDYFPEPVTVSWNSGALTSGVHTFPAVLQSSGLYSLSSVVTVPSSSLGTQTYICNVNHKPSNTKVDKKVEPKSCDKTHTCPPCPAPEAAGGPSVFLFPPKPKDTLMISRTPEVTCVVVDVSHEDPEVKFNWYVDGVEVHNAKTKPREEQYASTYRVVSVLTVLHQDWLNGKEYKCKVSNKALPASIEKTISKAKGQPREPQVYTLPPSREEMTKNQVSLTCLVKGFYPSDIAVEWESNGQPENNYKTTPPVLDSDGSFFLYSKLTVDKSRWQQGNVFSCSVMHEALHNHYTQKSLSLSPGK light: not shown",0.000664,8.18e-07,1.23e+06,–,–,–,–,–,–
"CE7-variant18-AG (antibody, CE7-4-34-VHA (L234A L235A P331S N297A) + CE7-3-15-VLB, aglycosylated human IgG1 kappa; N297 of IgG1 numbering is residue 319 of the entry (QYNST); also called CE7-varant18-AG) heavy: QVQLQQWGAGLLKPSETLSLTCAAYGYTFTGYWMHWIRQPPGKGLEWIGEINPSNGRTNYNERLKSRVTLSVDKSKNQASLKLSSVTAADTAVYFCARDYYGTSYNFDYWGQGTLVTVSSASTKGPSVFPLAPSSKSTSGGTAALGCLVKDYFPEPVTVSWNSGALTSGVHTFPAVLQSSGLYSLSSVVTVPSSSLGTQTYICNVNHKPSNTKVDKKVEPKSCDKTHTCPPCPAPEAAGGPSVFLFPPKPKDTLMISRTPEVTCVVVDVSHEDPEVKFNWYVDGVEVHNAKTKPREEQYASTYRVVSVLTVLHQDWLNGKEYKCKVSNKALPASIEKTISKAKGQPREPQVYTLPPSREEMTKNQVSLTCLVKGFYPSDIAVEWESNGQPENNYKTTPPVLDSDGSFFLYSKLTVDKSRWQQGNVFSCSVMHEALHNHYTQKSLSLSPGK light: not shown",0.00124,1.35e-06,1.09e+06,–,–,–,–,–,–

# The next lines start with results.
Kd [1] [nM],koff [1] [s⁻¹],kon [1] [M⁻¹ s⁻¹],kon [3] [M⁻¹ s⁻¹],EC50 [4] [mg/L],Kd [6] [nM],koff [6] [s⁻¹],kon [6] [M⁻¹ s⁻¹],Binder,further results
–,–,–,1.92e+06,–,–,–,–,"huCE7 variant LV42 (antibody, human IgG1, kappa, L234A L235A, N297A, Variant 7AG with HC TH307P; also called huCE7-variant42) heavy: QVQLVQSGAEVKKPGASVKVSCKASGYTFTGYWMHWVRQAPGQGLEWIGEINPSNGRTNYNERFQGRVTLTVDKSISTAYMELSRLRSDDTAVYYCARDYYGTSYNFDYWGQGTLVTVSSASTKGPSVFPLAPSSKSTSGGTAALGCLVKDYFPEPVTVSWNSGALTSGVHTFPAVLQSSGLYSLSSVVTVPSSSLGTQTYICNVNHKPSNTKVDKKVEPKSCDKTHTCPPCPAPEAAGGPSVFLFPPKPKDTLMISRTPEVTCVVVDVSHEDPEVKFNWYVDGVEVHNAKTKPREEQYASTYRVVSVLPVLHQDWLNGKEYKCKVSNKALPASIEKTISKAKGQPREPQVYTLPPSREEMTKNQVSLTCLVKGFYPSDIAVEWESNGQPENNYKTTPPVLDSDGSFFLYSKLTVDKSRWQQGNVFSCSVMHEALHNHYTQKSLSLSPGK light: DIQMTQSPSSLSASVGDRVTITCKANEDINNRLAWYQQKPGKAPKLLISGATNLVTGVPSRFSGSGSGKDYTLTISSLQPEDFATYYCQQYWSTPFTFGQGTKLEIKRTVAAPSVFIFPPSDEQLKSGTASVVCLLNNFYPREAKVQWKVDNALQSGNSQESVTEQDSKDSTYSLSSTLTLSKADYEKHKVYACEVTHQGLSSPVTKSFNRGEC",–
–,–,–,–,0.0701,0.046,3.62e-05,787000,"CE7-variant28 (antibody, V domains shown, CE7-1-2-VHD + CE7-1-NL1-VLD; human IgG1 kappa, L234A L235A P331S N297A (aglycosylated); also called humanized variant 28) VH: QVQLVQSGAEVKKPGASVKVSCKASGYTFTGYWMHWVRQAPGQGLEWMGEINPSNGRTNYNEKFQGRVTLTVDKSISTAYMELSRLRSDDTAVYYCARDYYGTSYNFDYWGQGTLVTVSS VL: DIQMTQSPSSLSASVGDRVTITCRASQGINNRLAWYQQKPGKAPKLLISGASNLVSGVPSRFSGSGSGKDYTLTISSLQPEDFATYYCQQYWSTPFTFGQGTKLEIKR",–
–,–,–,121000,–,–,–,–,"huCE7 variant LV38 (antibody, human IgG1, kappa, L234A L235A, N297A, Variant 7AG with HC WH33F, GH55A, LH309D and LC NL31A, WL92Y; also called huCE7-variant38) heavy: QVQLVQSGAEVKKPGASVKVSCKASGYTFTGYFMHWVRQAPGQGLEWIGEINPSNARTNYNERFQGRVTLTVDKSISTAYMELSRLRSDDTAVYYCARDYYGTSYNFDYWGQGTLVTVSSASTKGPSVFPLAPSSKSTSGGTAALGCLVKDYFPEPVTVSWNSGALTSGVHTFPAVLQSSGLYSLSSVVTVPSSSLGTQTYICNVNHKPSNTKVDKKVEPKSCDKTHTCPPCPAPEAAGGPSVFLFPPKPKDTLMISRTPEVTCVVVDVSHEDPEVKFNWYVDGVEVHNAKTKPREEQYASTYRVVSVLTVDHQDWLNGKEYKCKVSNKALPASIEKTISKAKGQPREPQVYTLPPSREEMTKNQVSLTCLVKGFYPSDIAVEWESNGQPENNYKTTPPVLDSDGSFFLYSKLTVDKSRWQQGNVFSCSVMHEALHNHYTQKSLSLSPGK light: DIQMTQSPSSLSASVGDRVTITCKANEDINARLAWYQQKPGKAPKLLISGATNLVTGVPSRFSGSGSGKDYTLTISSLQPEDFATYYCQQYYSTPFTFGQGTKLEIKRTVAAPSVFIFPPSDEQLKSGTASVVCLLNNFYPREAKVQWKVDNALQSGNSQESVTEQDSKDSTYSLSSTLTLSKADYEKHKVYACEVTHQGLSSPVTKSFNRGEC",Kd [3]: 0.268 nM; koff [3]: 3.23e-05 s⁻¹
–,–,–,–,0.0127,0.000186,1.65e-07,891000,"CE7-variant26 (antibody, V domains shown, CE7-1-2-VHD + CE7-1-NL1-VLB; human IgG1 kappa, L234A L235A P331S N297A (aglycosylated); also called humanized variant 26) VH: QVQLVQSGAEVKKPGASVKVSCKASGYTFTGYWMHWVRQAPGQGLEWMGEINPSNGRTNYNEKFQGRVTLTVDKSISTAYMELSRLRSDDTAVYYCARDYYGTSYNFDYWGQGTLVTVSS VL: DIQMTQSPSSLSASVGDRVTITCRANEDINNRLAWYQQKPGKAPKLLISGATNLVTGVPSRFSGSGSGKDYTLTISSLQPEDFATYYCQQYWSTPFTFGQGTKLEIKR",–
0.12,9.59e-05,806000,–,0.0131,–,–,–,"Deglycosylated cHCE7 (antibody, V domains shown, deglycosylated (so in the source); site and method not stated for this sample, also called cHCE7 degly; cHCE7 deglycosylated) VH: QVQLQQPGAELVKPGASVKLSCKASGYTFTGYWMHWVKQRPGHGLEWIGEINPSNGRTNYNERFKSKATLTVDKSSTTAFMQLSGLTSEDSAVYFCARDYYGTSYNFDYWGQGTTLTVSS VL: DIQMTQSSSSFSVSLGDRVTITCKANEDINNRLAWYQQTPGNSPRLLISGATNLVTGVPSRFSGSGSGKDYTLTITSLQAEDFATYYCQQYWSTPFTFGSGTELEIK",Kd [2]: ~4 nM
–,–,–,–,0.0335,–,–,–,"LV8 (antibody, V domains shown, CE7-VH-chimeric + CE7-VL-chimeric-WL92F; chimeric CE7, human IgG1 kappa, L234A L235A P331S N297A; also called liability variant 8) VH: QVQLQQPGAELVKPGASVKLSCKASGYTFTGYWMHWVKQRPGHGLEWIGEINPSNGRTNYNERFKSKATLTVDKSSTTAFMQLSGLTSEDSAVYFCARDYYGTSYNFDYWGQGTTLTVSS VL: DIQMTQSSSSFSVSLGDRVTITCKANEDINNRLAWYQQTPGNSPRLLISGATNLVTGVPSRFSGSGSGKDYTLTITSLQAEDFATYYCQQYFSTPFTFGSGTELEIKR",–
